{
  "source": "patent US20200024330A1",
  "key": {"[1]": {"target": "HIV-1 Env of isolate JR-CSF (HIV-1) (UniProt P20871)", "test": "cell-based or functional assay"}, "[2]": {"target": "Env of the clade C HIV-1 pseudoviruses of the cross-clade 162-pseudovirus panel (n = 27)", "test": "cell-based or functional assay"}, "[3]": {"target": "HIV-1 MGRM-C-026 envelope glycoprotein (Env) (HIV-1)", "test": "cell-based or functional assay"}, "[4]": {"target": "HIV-1 MGRM-C-027 envelope glycoprotein (Env) (HIV-1)", "test": "cell-based or functional assay"}, "[5]": {"target": "HIV-1 APV6 envelope glycoprotein (Env) (HIV-1)", "test": "cell-based or functional assay"}, "[6]": {"target": "HIV-1 94UG103 envelope glycoprotein (Env) (HIV-1)", "test": "cell-based or functional assay"}, "[7]": {"target": "HIV-1 93IN905 envelope glycoprotein (Env) (HIV-1)", "test": "cell-based or functional assay"}, "[8]": {"target": "HIV-1 MGRM-C-028 envelope glycoprotein (Env) (HIV-1)", "test": "cell-based or functional assay"}, "[9]": {"target": "HIV-1 MGRM-A-010 envelope glycoprotein (Env) (HIV-1)", "test": "cell-based or functional assay"}, "[10]": {"target": "Env of the clade D HIV-1 pseudoviruses of the cross-clade 162-pseudovirus panel (n = 25)", "test": "cell-based or functional assay"}, "[11]": {"target": "HIV-1 APV13 envelope glycoprotein (Env) (HIV-1)", "test": "cell-based or functional assay"}, "[12]": {"target": "HIV-1 JRFL envelope glycoprotein (Env) (HIV-1)", "test": "cell-based or functional assay"}, "[13]": {"target": "Env of all HIV-1 pseudoviruses of the cross-clade 162-pseudovirus panel (n = 162)", "test": "cell-based or functional assay"}, "[14]": {"target": "HIV-1 APV17 envelope glycoprotein (Env) (HIV-1)", "test": "cell-based or functional assay"}, "[15]": {"target": "HIV-1 93UG077 envelope glycoprotein (Env) (HIV-1)", "test": "cell-based or functional assay"}, "[16]": {"target": "HIV-1 92BR020 envelope glycoprotein (Env) (HIV-1)", "test": "cell-based or functional assay"}, "[17]": {"target": "Env of the clade G HIV-1 pseudoviruses of the cross-clade 162-pseudovirus panel (n = 15)", "test": "cell-based or functional assay"}, "[18]": {"target": "Env of the clade B HIV-1 pseudoviruses of the cross-clade 162-pseudovirus panel (n = 31)", "test": "cell-based or functional assay"}, "[19]": {"target": "HIV-1 JRCSF envelope glycoprotein (Env) (HIV-1) (UniProt P20871)", "test": "cell-based or functional assay"}, "[20]": {"target": "HIV-1 NL43 envelope glycoprotein (Env) (HIV-1)", "test": "cell-based or functional assay"}, "[21]": {"target": "HIV-1 92RW020 envelope glycoprotein (Env) (HIV-1)", "test": "cell-based or functional assay"}, "[22]": {"target": "HIV-1 Env of isolate 93IN905 (HIV-1)", "test": "cell-based or functional assay"}, "[23]": {"target": "Env of the clade A HIV-1 pseudoviruses of the cross-clade 162-pseudovirus panel (n = 26)", "test": "cell-based or functional assay"}, "[24]": {"target": "Env of the clade AG HIV-1 pseudoviruses of the cross-clade 162-pseudovirus panel (n = 10)", "test": "cell-based or functional assay"}, "[25]": {"target": "HIV-1 Env of isolate MGRM-C-026 (HIV-1)", "test": "cell-based or functional assay"}, "[26]": {"target": "Env of the clade F HIV-1 pseudoviruses of the cross-clade 162-pseudovirus panel (n = 15)", "test": "cell-based or functional assay"}, "[27]": {"target": "JR-FL gp120 ΔV1/ΔV2 (HIV-1 (isolate JR-FL))", "test": "ELISA on coated gp120; EC50 by nonlinear regression"}, "[28]": {"target": "WT JR-FL gp120 (HIV-1 (isolate JR-FL))", "test": "ELISA on coated gp120; EC50 by nonlinear regression"}, "[29]": {"target": "JR-FL gp120 ΔV3 (HIV-1 (isolate JR-FL))", "test": "ELISA on coated gp120; EC50 by nonlinear regression"}},
  "data": [
    {"binder": "PGT-136 (antibody, V domains shown) VH: QLQLQESGPGLVKPSETLSLTCTVSGGSMRGTDWGENDFHYGWIRQSSAKGLEWIGSIHWRGRTTHYKTSFRSRATLSIDTSNNRFSLTFSFVTAADTAVYYCARHKYHDIFRVVPVAGWFDPWGQGLLVTVSS VL: EIVMTQSPPTLSVSPGETATLSCRASQNVKNNLAWYQLKPGQAPRLLIFDASSRAGGIPDRFSGSGYGTDFTLTVNSVQSEDFGDYFCQQYEEWPRTFGQGTKVDIK", "values": [
      {"measurement": "Primary Neutralization Index (B cell culture well 5329 C19)", "setting": "[1]", "result": 0.9},
      {"measurement": "Primary Neutralization Index (B cell culture well 5366 P21)", "setting": "[1]", "result": 1.1},
      {"measurement": "Median IC50 against viruses neutralized with an IC50 <50 µg/ml", "setting": "[2]", "result": 7.52, "unit": "µg/mL"},
      {"measurement": "IC50 neutralization", "setting": "[3]", "result": 0.0065, "unit": "µg/mL"},
      {"measurement": "IC50 neutralization", "setting": "[4]", "result": "> 10", "unit": "µg/mL"},
      {"measurement": "IC50 neutralization", "setting": "[5]", "result": "> 10", "unit": "µg/mL"},
      {"measurement": "IC50 neutralization", "setting": "[6]", "result": "> 10", "unit": "µg/mL"},
      {"measurement": "IC50 neutralization", "setting": "[7]", "result": 0.0135, "unit": "µg/mL"},
      {"measurement": "IC50 neutralization", "setting": "[8]", "result": "> 10", "unit": "µg/mL"},
      {"measurement": "IC50 neutralization", "setting": "[9]", "result": "> 10", "unit": "µg/mL"},
      {"measurement": "Median IC50 against viruses neutralized with an IC50 <50 µg/ml", "setting": "[10]", "result": 0.05, "unit": "µg/mL"},
      {"measurement": "IC50 neutralization", "setting": "[11]", "result": "> 10", "unit": "µg/mL"},
      {"measurement": "IC50 neutralization", "setting": "[12]", "result": "> 10", "unit": "µg/mL"},
      {"measurement": "Median IC50 against viruses neutralized with an IC50 <50 µg/ml", "setting": "[13]", "result": 7.81, "unit": "µg/mL"},
      {"measurement": "IC50 neutralization", "setting": "[14]", "result": "> 10", "unit": "µg/mL"},
      {"measurement": "IC50 neutralization", "setting": "[15]", "result": "> 10", "unit": "µg/mL"},
      {"measurement": "IC50 neutralization", "setting": "[16]", "result": "> 10", "unit": "µg/mL"},
      {"measurement": "Median IC50 against viruses neutralized with an IC50 <50 µg/ml", "setting": "[17]", "result": 18.9, "unit": "µg/mL"},
      {"measurement": "Median IC50 against viruses neutralized with an IC50 <50 µg/ml", "setting": "[18]", "result": 13.2, "unit": "µg/mL"},
      {"measurement": "IC50 neutralization", "setting": "[19]", "result": "> 10", "unit": "µg/mL"},
      {"measurement": "IC50 neutralization", "setting": "[20]", "result": "> 10", "unit": "µg/mL"},
      {"measurement": "IC50 neutralization", "setting": "[21]", "result": 0.738, "unit": "µg/mL"},
      {"measurement": "Primary Neutralization Index (B cell culture well 5329 C19)", "setting": "[22]", "result": 5.6},
      {"measurement": "Primary Neutralization Index (B cell culture well 5366 P21)", "setting": "[22]", "result": 5.5},
      {"measurement": "Median IC50 against viruses neutralized with an IC50 <50 µg/ml", "setting": "[23]", "result": 2.34, "unit": "µg/mL"},
      {"measurement": "Median IC50 against viruses neutralized with an IC50 <50 µg/ml", "setting": "[24]", "result": 29.1, "unit": "µg/mL"},
      {"measurement": "Primary Neutralization Index (B cell culture well 5329 C19)", "setting": "[25]", "result": 6},
      {"measurement": "Primary Neutralization Index (B cell culture well 5366 P21)", "setting": "[25]", "result": 6.2},
      {"measurement": "Median IC50 against viruses neutralized with an IC50 <50 µg/ml", "setting": "[26]", "result": 4.75, "unit": "µg/mL"},
      {"measurement": "EC50", "setting": "[27]", "result": 0.3, "unit": "µg/mL"},
      {"measurement": "EC50", "setting": "[28]", "result": 0.2, "unit": "µg/mL"},
      {"measurement": "EC50", "setting": "[29]", "result": 0.1, "unit": "µg/mL"}
    ]}
  ]
}
